# From publication PMC6126693
# Tested on: ZIC2 zinc finger domains (five ZnF)
# Assay: ITC
# Conditions: ITC: 300 mM NaCl, 50 mM potassium phosphate, pH 8.0, 25 C, EMSA: binding buffer not specified, 30 min 37 C, 6% PAGE 1x TBE 4 C
substance,measurement,setting,value
antisense PCAT92 RNA,Ka,RNA 60 uM into protein 5 uM,1e+06 M⁻¹
sense PCAT92 RNA (predicted ZIC2-binding region),Ka,,1e+09 M⁻¹
